Experimental data published in patent EP4692351A1, “ANTI-CD25 ANTIBODY AND ANTI-CD25 ANTIBODY-DRUG CONJUGATE” (priority 2023, dated 2024).
Blank lines part the entries; values can stand above or below the molecule they belong to.

Key:
human CD25 [1] = target: T1, human CD25 (human, UniProt P01589 22-272); assay: cell-based or functional assay
T1 construct: Expressed on transiently transfected CHO-K1 cells in the Cell-ELISA; Endogenous on human T cells, PBMC, Karpas-299 and EoL-1 in the functional assays; also called hCD25; IL-2 receptor alpha chain
T1 sequence: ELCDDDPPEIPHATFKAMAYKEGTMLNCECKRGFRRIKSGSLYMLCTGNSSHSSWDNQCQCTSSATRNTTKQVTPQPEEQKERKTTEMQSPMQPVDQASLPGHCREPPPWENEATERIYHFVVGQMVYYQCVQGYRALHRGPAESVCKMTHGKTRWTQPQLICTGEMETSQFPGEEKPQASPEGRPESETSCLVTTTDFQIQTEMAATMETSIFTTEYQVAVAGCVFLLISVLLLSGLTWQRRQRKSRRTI

mouse CD25 [2] = target: T2, mouse CD25 (mouse, UniProt P01590 22-268); assay: cell-based or functional assay
T2 construct: Expressed on transiently transfected CHO-K1 cells in the Cell-ELISA; Endogenous on CTLL-2 cells and mouse pan T cells in the functional assays; also called mCD25; pCMV3-mCD25 (expression vector)
T2 sequence: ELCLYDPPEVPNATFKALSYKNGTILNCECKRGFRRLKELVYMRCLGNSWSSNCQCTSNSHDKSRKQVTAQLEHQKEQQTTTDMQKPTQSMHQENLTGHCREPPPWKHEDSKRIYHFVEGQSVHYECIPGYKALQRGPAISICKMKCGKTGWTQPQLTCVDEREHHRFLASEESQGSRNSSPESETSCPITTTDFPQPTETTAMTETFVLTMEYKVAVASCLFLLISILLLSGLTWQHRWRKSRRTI

human CD25 [3] = target: T1, human CD25; assay: Cell-ELISA on transfected CHO-K1 cells, anti-rat IgG-HRP, A450
cynomolgus monkey CD25 [4] = target: T3, cynomolgus monkey CD25 (cynomolgus monkey, UniProt Q5MNY4 22-272 (rhesus entry)); assay: as above
T3 construct: Expressed on transiently transfected CHO-K1 cells; also called cCD25; pCI-cCD25 (expression vector)
T3 chain: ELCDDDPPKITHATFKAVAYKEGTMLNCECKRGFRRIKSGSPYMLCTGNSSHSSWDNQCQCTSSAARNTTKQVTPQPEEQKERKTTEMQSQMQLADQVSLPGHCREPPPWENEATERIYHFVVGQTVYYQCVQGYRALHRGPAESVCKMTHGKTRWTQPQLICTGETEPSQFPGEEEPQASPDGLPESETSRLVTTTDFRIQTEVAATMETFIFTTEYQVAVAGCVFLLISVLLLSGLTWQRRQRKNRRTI

human CD25 [5] = target: T1, human CD25; assay: Cell-ELISA on transfected CHO-K1 cells, anti-human IgG-HRP, A450
cynomolgus monkey CD25 [6] = target: T3, cynomolgus monkey CD25; assay: as above
mouse CD25 [7] = target: T2, mouse CD25; assay: as above
[8] = target: T4, CD25 antigen used as analyte in the Biacore measurement (Homo sapiens (Human), UniProt P01589 22-213, limits assumed); assay: SPR, Biacore T200, antibody captured on anti-human IgG (Fc) on CM5, antigen as analyte, 1:1 binding model
T4 construct: also called the antigen
T4 sequence: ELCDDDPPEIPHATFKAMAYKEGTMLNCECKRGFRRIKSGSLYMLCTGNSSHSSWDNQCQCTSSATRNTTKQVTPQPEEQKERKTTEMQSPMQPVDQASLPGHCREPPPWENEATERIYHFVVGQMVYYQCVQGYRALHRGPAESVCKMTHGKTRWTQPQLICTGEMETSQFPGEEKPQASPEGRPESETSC

cynomolgus monkey CD25 [9] = target: T3, cynomolgus monkey CD25; assay: Cell-ELISA on transfected CHO-K1 cells, anti-human IgG-HRP, A450; 20 to 0.001 µg/mL
cynomolgus monkey CD25 [10] = target: T3, cynomolgus monkey CD25; assay: Cell-ELISA on transfected CHO-K1 cells, anti-human IgG-HRP, A450; 80 to 0.001 µg/mL
mouse CD25 [11] = target: T2, mouse CD25; assay: Cell-ELISA on transfected CHO-K1 cells, anti-rat IgG-HRP, A450
cynomolgus monkey CD25 [12] = target: T3, cynomolgus monkey CD25; assay: Cell-ELISA on transfected CHO-K1 cells, anti-rat IgG-HRP, A450; 0.02 to 10 µg/mL

binding result (human CD25 [3]): no binding (tested: up to 10 µg/mL) | binding result (cynomolgus monkey CD25 [4]): no binding (tested: up to 10 µg/mL)
B1: MAb2 antibody (antibody, V domains shown)
VH: QVKLLQSGAALEKPGASVKMSCKASGYTFTDYWVIWVKQSHGKSLEWIGEIYPNSGATNFNAKFKGKATLTVDKSTSTAYMELSRLTSEDSAIYYCTTYDFDYWGQGVMVTVSS
VL: DVVLTQTPPTLSATIGQSVSISCRSSQSLSHTNGNTYLYWLLQRPGQPPQLLIYFVSRLESGVPNRFSGSGSGTDFTLKISGVEAEDLGLYYCVQSTHVPNTFGAGTKLELKR
notes: Rat monoclonal anti-mouse CD25 antibody from a hybridoma

binding result (human CD25 [5]): no binding (tested: 80 to 0.001 µg/mL) | binding result (cynomolgus monkey CD25 [6]): no binding (tested: 80 to 0.001 µg/mL)
B2: cMAb2_hIgG1LALA antibody (antibody, V domains shown)
VH: QVKLLQSGAALEKPGASVKMSCKASGYTFTDYWVIWVKQSHGKSLEWIGEIYPNSGATNFNAKFKGKATLTVDKSTSTAYMELSRLTSEDSAIYYCTTYDFDYWGQGVMVTVSS
VL: DVVLTQTPPTLSATIGQSVSISCRSSQSLSHTNGNTYLYWLLQRPGQPPQLLIYFVSRLESGVPNRFSGSGSGTDFTLKISGVEAEDLGLYYCVQSTHVPNTFGAGTKLELKR
notes: 21-239 is used here; also called human IgG1LALA chimeric MAb2

binding result (mouse CD25 [7]): no binding (tested: 80 to 0.001 µg/mL) | binding result (cynomolgus monkey CD25 [10]): binds
B4: cMAb1_hIgG1LALA antibody (antibody, V domains shown)
VH: EVQLVESGGGLVQPGRSLKLSCAASGFTFNNYYMVWVRQAPTKGLEWVAYISTGGGTTYYRESVKGRFTISRDNAKSTLYLQMDSLRSEDTATYYCTTSVYFSDGSSHYDGEWFAYWGQGTLVTVSS
VL: DTVLTQSPALAVSPGERVTISCKASESVSTRMHWYQQKPGQQPKLLIYKASNLASGVPARFSGSGSGTDFTLTIDPVEADDTATYFCQQSWNGWAFGGGTKLELKR
notes: Chimeric: rat MAb1 variable regions, human IgG1 LALA heavy constant region, human kappa constant region; also called human IgG1LALA chimeric MAb1

binding result (mouse CD25 [11]): no binding (tested: up to 10 µg/mL) | binding result (cynomolgus monkey CD25 [12]): binds
B6: MAb1 antibody (antibody, V domains shown)
VH: EVQLVESGGGLVQPGRSLKLSCAASGFTFNNYYMVWVRQAPTKGLEWVAYISTGGGTTYYRESVKGRFTISRDNAKSTLYLQMDSLRSEDTATYYCTTSVYFSDGSSHYDGEWFAYWGQGTLVTVSS
VL: DTVLTQSPALAVSPGERVTISCKASESVSTRMHWYQQKPGQQPKLLIYKASNLASGVPARFSGSGSGTDFTLTIDPVEADDTATYFCQQSWNGWAFGGGTKLELKR
notes: Rat monoclonal antibody from a hybridoma

The remaining lines, values behind:

Molecule: 7G7B6 (antibody)
amount of pSTAT5 in human PBMC with IL-2 (AlphaLISA), % of rat IgG2a control group; antibody 20 µg/mL (human CD25 [1]): 103%

Molecule: PC61_hIgG1LALA (antibody)
amount of pSTAT5 in mouse CTLL-2 cells with IL-2 (AlphaLISA), % of rat IgG2a control group; antibody solution 20 µg/mL (mouse CD25 [2]): 48%

Molecule: basiliximab (antibody)
amount of pSTAT5 in human PBMC with IL-2 (AlphaLISA), % of hIgG1 control group (human CD25 [1]): 0.01% | amount of pSTAT5 in human PBMC with IL-2 (AlphaLISA), % of human IgG1 control group (human CD25 [1]): 1.2% | amount of pSTAT5 in human PBMC with IL-2 (AlphaLISA), % of rat IgG2a control group; antibody 20 µg/mL (human CD25 [1]): 1%

Molecule: Purified NA/LE Rat Anti-Mouse CD25 (PC61 antibody)
cell survival rate of mouse pan T cells with Fab-ZAP rat (saporin), % of control antibody; 60 ng/mL (mouse CD25 [2]): 59% | cell survival rate of mouse pan T cells with Fab-ZAP rat (saporin), % of control antibody; 300 ng/mL (mouse CD25 [2]): 39% | cell survival rate of mouse pan T cells with Fab-ZAP rat (saporin), % of control antibody; 1500 ng/mL (mouse CD25 [2]): 31% | cell survival rate of mouse pan T cells with Fab-ZAP rat (saporin), % of control antibody; 7500 ng/mL (mouse CD25 [2]): 29%

B3: hMAb1A antibody (antibody, human IgG1, kappa, V domains shown)
VH: EVQLVESGGGLVQPGGSLRLSCAASGFTFNNYYMVWVRQAPGKGLEWVAYISTGGGTTYYRESVKGRFTISRDNSKSTLYLQMNSLRAEDTAVYYCTTSVYFSDGSSHYDGEWFAYWGQGTLVTVSS
VL: DIVMTQSPDSLAVSLGERATINCKASESVSTRMHWYQQKPGQPPKLLIYKASNLASGVPARFSGSGSGTDFTLTISSLQAEDVAVYYCQQSWNGWAFGQGTKVEIKR
notes: Humanized MAb1, human IgG1 / kappa; also called humanized antibody hMAb1A; hMAb1 (in places)
binding result (mouse CD25 [7]): no binding (tested: 20 to 0.001 µg/mL) | Kd [8]: 2.9 nM | binding result (cynomolgus monkey CD25 [9]): binds

B5: hMAb1B antibody (antibody, human IgG1, kappa, V domains shown)
VH: EVQLVESGGGLVQPGGSLRLSCAASGFTFNNYYMVWVRQAPGKGLEWVAYISTGGGTTYYADSVKGRFTISRDNSKSTLYLQMNSLRAEDTAVYYCTTSVYFSDGSSHYDGEWFAYWGQGTLVTVSS
VL: EIVLTQSPGTLSLSPGERATLSCKASESVSTRMHWYQQKPGQAPRLLIYKASNLASGVPARFSGSGSGTDFTLTISRLEPEDFAVYFCQQSWNGWAFGQGTKVEIKR
notes: Humanized MAb1, human IgG1 / kappa; also called humanized antibody hMAb1B
Kd [8]: 5.7 nM | binding result (cynomolgus monkey CD25 [9]): binds
